Series [1] can be described thus: In vivo PK in transgenic humanized FcRn mice (Tg32). The conditions noted are these: 0.3 mg/kg single IV, plasma, noncompartmental analysis. How it is done:
In vivo PK studies were conducted in transgenic humanized FcRn mice (Tg32). For these studies, no GLP compliance was claimed.

Series [2] deals with T1, FGFR1c and co-receptor beta-Klotho (KLB) (Homo sapiens, UniProt P11362+Q86Z14).
T1 construct: host or cells: iLite FGF21 Assay Ready Cells (HEK293)
Description: Luciferase reporter gene assay (iLite FGF21 Assay Ready Cells), FGF21-like signaling. Format: cell-based. For orientation: A reporter such as luciferase makes a cellular process visible.

A short description of series [3]: In vivo PK in cynomolgus monkeys, single intravenous dose. Further details: species or system Cynomolgus monkey (Macaca fascicularis). The following applies: Macaca fascicularis, 3.0 mg/kg single IV, plasma. As for the experimental part: Naive cynomolgus monkeys received a single intravenous dose of mAb according to the following table:
In all investigations, the animals were evaluated twice daily for post-dose mortality/moribundity and cage side clinical observations were carried out after each study blood collection time. Studies were Non-GLP, nevertheless, these studies have been conducted in a GLP compliant facility using practices detailed in Standard Operating Procedures consistent with the principles of GLP (Test facility: Sanofi and Charles River Laboratories). Plasma concentrations and pharmacokinetic parameters of the tested antibodies were investigated after single intravenous administration.

The nature of series [4]: Nano differential scanning fluorimetry (nanoDSF), Tonset and Tm. The series is classed as physicochemical. How it is done: Onset temperatures (Tonset) and melting points (Tm) of protein denaturation were determined using nano differential scanning fluorimetry (nanoDSF). Samples were diluted in formulation buffer to a final concentration of 0.5 mg/mL and loaded into nanoDSF capillaries in duplicates (Nanotemper Technologies). All measurements were done using a Prometheus NT.plex nanoDSF device (Nanotemper Technologies). Heating rate was 1° C. per minute from 20° C. to 95° C. Data were recorded using PR.ThermControl Software v2.3.1 (Nanotemper Technologies) and analyzed using PR.Stability Analysis Software v1.0.3 (Nanotemper Technologies).
A general note: Differential scanning fluorimetry follows unfolding on heating by fluorescence.

Series [5] is described as follows: Hydrophobic interaction chromatography (HIC). Format: physicochemical. As for the experimental part:
The analysis was run at a flow rate of 1 mL/min with detection at 280 nm. 5 μg of undiluted protein sample were applied onto the column. Gradient elution was from 15% B to 85% B in 7 min followed by 1 min to 100% B, then 1 min to 15% B and then 3 minutes equilibration at 15% B. Buffer A was composed of 1.5 mol/L ammonium sulfate, 25 mmol/L sodium phosphate pH 7.0. Buffer B was composed of 25 mmol/L sodium phosphate pH 7.0. Data evaluation was performed either using LabSolutions software v5.85 (Shimadzu) or Chromeleon 7 software (Thermo Fisher Scientific).

T1 sequence (Q86Z14 53-1044 limits assumed): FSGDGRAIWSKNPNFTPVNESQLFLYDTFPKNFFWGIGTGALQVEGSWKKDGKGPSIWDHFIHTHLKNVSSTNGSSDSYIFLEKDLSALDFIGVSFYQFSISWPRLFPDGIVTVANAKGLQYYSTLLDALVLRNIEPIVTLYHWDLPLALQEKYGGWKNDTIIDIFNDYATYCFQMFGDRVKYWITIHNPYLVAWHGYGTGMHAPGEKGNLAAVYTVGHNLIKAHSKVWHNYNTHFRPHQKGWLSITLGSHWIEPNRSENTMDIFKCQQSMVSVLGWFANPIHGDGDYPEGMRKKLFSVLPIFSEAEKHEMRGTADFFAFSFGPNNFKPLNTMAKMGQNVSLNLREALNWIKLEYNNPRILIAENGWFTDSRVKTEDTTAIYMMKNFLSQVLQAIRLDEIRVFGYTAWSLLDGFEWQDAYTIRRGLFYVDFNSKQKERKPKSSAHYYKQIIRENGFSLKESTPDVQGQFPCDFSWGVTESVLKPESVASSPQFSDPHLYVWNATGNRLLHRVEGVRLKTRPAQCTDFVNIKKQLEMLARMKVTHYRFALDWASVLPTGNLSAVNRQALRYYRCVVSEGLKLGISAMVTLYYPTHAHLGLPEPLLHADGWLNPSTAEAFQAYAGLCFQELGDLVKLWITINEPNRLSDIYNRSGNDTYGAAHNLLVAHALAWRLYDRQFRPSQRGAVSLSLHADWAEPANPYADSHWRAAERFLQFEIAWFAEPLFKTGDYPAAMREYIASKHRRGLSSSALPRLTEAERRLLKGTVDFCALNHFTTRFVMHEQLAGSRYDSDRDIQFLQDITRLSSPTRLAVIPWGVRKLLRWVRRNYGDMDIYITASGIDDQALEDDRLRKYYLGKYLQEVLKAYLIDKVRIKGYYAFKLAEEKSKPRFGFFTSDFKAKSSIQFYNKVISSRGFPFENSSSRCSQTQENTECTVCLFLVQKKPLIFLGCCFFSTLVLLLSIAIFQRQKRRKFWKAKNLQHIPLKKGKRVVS
T1 sequence (P11362 22-820 isoform P11362-2 limits assumed): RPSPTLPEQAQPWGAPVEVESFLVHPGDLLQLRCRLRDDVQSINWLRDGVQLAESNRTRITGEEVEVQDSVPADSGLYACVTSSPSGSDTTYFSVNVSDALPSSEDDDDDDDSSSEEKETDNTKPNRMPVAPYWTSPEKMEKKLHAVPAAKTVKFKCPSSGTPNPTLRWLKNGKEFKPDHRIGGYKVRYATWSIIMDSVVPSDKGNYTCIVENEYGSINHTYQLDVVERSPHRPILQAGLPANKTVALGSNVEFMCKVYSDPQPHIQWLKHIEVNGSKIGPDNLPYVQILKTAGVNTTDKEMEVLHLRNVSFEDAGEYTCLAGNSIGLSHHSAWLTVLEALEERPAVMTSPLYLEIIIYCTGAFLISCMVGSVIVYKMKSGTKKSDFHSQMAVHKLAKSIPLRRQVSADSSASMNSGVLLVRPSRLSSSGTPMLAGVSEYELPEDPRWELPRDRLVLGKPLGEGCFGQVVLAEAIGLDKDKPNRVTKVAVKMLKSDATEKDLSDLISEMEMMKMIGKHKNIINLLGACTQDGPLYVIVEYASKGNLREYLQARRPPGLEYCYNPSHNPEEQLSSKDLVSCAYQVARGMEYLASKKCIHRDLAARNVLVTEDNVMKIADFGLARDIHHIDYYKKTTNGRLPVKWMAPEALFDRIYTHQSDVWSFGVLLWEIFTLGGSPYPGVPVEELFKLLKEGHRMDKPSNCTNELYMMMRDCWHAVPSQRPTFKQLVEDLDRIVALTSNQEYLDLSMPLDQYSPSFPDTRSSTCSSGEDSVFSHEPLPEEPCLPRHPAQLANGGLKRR

The term t½ denotes the time needed for the level to fall by half in the phase considered. In the case of “Ab0331: IgG4 PE; 16H7 VL (N25S, D49S, D50E, D91E, N93E); 16H7 VH (M34V, I83T, D109E); HC SEQ ID NO: 38, LC SEQ ID NO: 45”, the t½ in series [1] came to 14.9 days; in series [3], 10.8 days. The “cellular activity in the Luciferase gene reporter assay compared to 16H7” value in series [2] is “comparable cellular activity”. Further, the “Thermal stability DSF Tm” value in series [4] was 63 °C. In series [4], the “Thermal stability DSF Tonset” value came out at 53 °C. The “DSF Tm” value came to 61 °C in series [4] (pH 5, 40° C., d 21); 61 °C in series [4] (pH 5, d 0); 62 °C in series [4] (pH 6, 40° C., d 21); 63 °C in series [4] (pH 6, d 0); 67 °C in series [4] (pH 8, 40° C., d 21); 68 °C in series [4] (pH 8, d 0). The “DSF Tonset” value in series [4] (pH 5, 40° C., d 21) stood at 44 °C; in series [4] (pH 5, d 0) it was 54 °C; in series [4] (pH 6, 40° C., d 21), 50 °C; in series [4] (pH 6, d 0), 53 °C; in series [4] (pH 8, 40° C., d 21), 57 °C; in series [4] (pH 8, d 0), 58 °C. The “Hydrophobic variance HIC Number of peaks” value in series [5] amounted to 1. Moreover, the “HIC Number of peaks” value in series [5] (pH 5, 40° C., d 21) turned out to be 1; in series [5] (pH 5, d 0), 1; in series [5] (pH 6, 40° C., d 21) it was 1; in series [5] (pH 6, d 0), 1; in series [5] (pH 8, 40° C., d 21), 1; in series [5] (pH 8, d 0) it was 1.
In series [1], “Ab0351: IgG4 PE; 16H7 VL (N25S, D49E, D50E, D91E, N93E); 16H7 VH (M34V, I83T, D109E); HC SEQ ID NO: 40, LC SEQ ID NO: 47” came in with a t½ of 14.2 days. Further, the “cellular activity in the Luciferase gene reporter assay compared to 16H7” value in series [2] is “comparable cellular activity”. In addition, in series [4], the “Thermal stability DSF Tm” value was found to be 62 °C. Moreover, the “Thermal stability DSF Tonset” value in series [4] was 53 °C. Moreover, the “DSF Tm” value in series [4] (pH 5, 40° C., d 21) is 61 °C; in series [4] (pH 5, d 0) it was 61 °C; in series [4] (pH 6, 40° C., d 21) it was 62 °C; in series [4] (pH 6, d 0), 62 °C; in series [4] (pH 8, 40° C., d 21) it was 66 °C; in series [4] (pH 8, d 0) it was 66 °C. The “DSF Tonset” value in series [4] (pH 5, 40° C., d 21) stood at 45 °C; in series [4] (pH 5, d 0), 50 °C; in series [4] (pH 6, 40° C., d 21) it was 52 °C; in series [4] (pH 6, d 0) it was 53 °C; in series [4] (pH 8, 40° C., d 21) it was 57 °C; in series [4] (pH 8, d 0), 58 °C. Further, in series [5], the “Hydrophobic variance HIC Number of peaks” value was 1. Also, the “HIC Number of peaks” value is 1 in series [5] (pH 5, 40° C., d 21); 1 in series [5] (pH 5, d 0); 1 in series [5] (pH 6, 40° C., d 21); 1 in series [5] (pH 6, d 0); 1 in series [5] (pH 8, 40° C., d 21); 1 in series [5] (pH 8, d 0).
In series [1], “Ab0428: IgG1 NNAS; 16H7 VL (N25S, D49S, D50E, D91E, N93E); 16H7 VH (M34V, I83T, D109E); HC SEQ ID NO: 41, LC SEQ ID NO: 48” registered a t½ of 13.8 days. For the same substance, the “Thermal stability DSF Tm” value in series [4] worked out at 62 °C. Also, in series [4], the “Thermal stability DSF Tonset” value stood at 48 °C. Further, the “DSF Tm” value in series [4] (pH 5, 40° C., d 21) was 59 °C; in series [4] (pH 5, d 0) it was 59 °C; in series [4] (pH 6, 40° C., d 21) it was 62 °C; in series [4] (pH 6, d 0), 62 °C; in series [4] (pH 8, 40° C., d 21), 67 °C; in series [4] (pH 8, d 0), 68 °C. Further, the “DSF Tonset” value in series [4] (pH 5, 40° C., d 21) was determined as 51 °C; in series [4] (pH 5, d 0) it was 50 °C; in series [4] (pH 6, 40° C., d 21), 47 °C; in series [4] (pH 6, d 0) it was 48 °C; in series [4] (pH 8, 40° C., d 21), 56 °C; in series [4] (pH 8, d 0) it was 54 °C. Further, the “Hydrophobic variance HIC Number of peaks” value in series [5] was found to be 1. The “HIC Number of peaks” value in series [5] (pH 5, 40° C., d 21) turned out to be 1; in series [5] (pH 5, d 0), 1; in series [5] (pH 6, 40° C., d 21), 1; in series [5] (pH 6, d 0) it was 1; in series [5] (pH 8, 40° C., d 21), 1; in series [5] (pH 8, d 0), 1.
As for “Ab0429: IgG1 NNAS; 16H7 VL (N25S, D49S, D50A, D91E, N93E); 16H7 VH (M34V, I83T, D109E); HC SEQ ID NO: 42, LC SEQ ID NO: 49”, the t½ in series [1] was 13.9 days; in series [3] it was 7.62 days. Further, the “Thermal stability DSF Tm” value in series [4] is 62 °C. Further, in series [4], the “Thermal stability DSF Tonset” value came to 50 °C. For the same substance, the “DSF Tm” value is 60 °C in series [4] (pH 5, 40° C., d 21); 58 °C in series [4] (pH 5, d 0); 62 °C in series [4] (pH 6, 40° C., d 21); 62 °C in series [4] (pH 6, d 0); 69 °C in series [4] (pH 8, 40° C., d 21); 63 °C in series [4] (pH 8, d 0). Moreover, the “DSF Tonset” value in series [4] (pH 5, 40° C., d 21) is 51 °C; in series [4] (pH 5, d 0), 51 °C; in series [4] (pH 6, 40° C., d 21), 48 °C; in series [4] (pH 6, d 0) it was 50 °C; in series [4] (pH 8, 40° C., d 21), 55 °C; in series [4] (pH 8, d 0), 53 °C. The “Hydrophobic variance HIC Number of peaks” value in series [5] worked out at 1. Further, the “HIC Number of peaks” value in series [5] (pH 5, 40° C., d 21) came to 1; in series [5] (pH 5, d 0), 1; in series [5] (pH 6, 40° C., d 21), 1; in series [5] (pH 6, d 0), 1; in series [5] (pH 8, 40° C., d 21), 1; in series [5] (pH 8, d 0), 1.
Turning to “Ab0430: IgG1 NNAS; 16H7 VL (N25S, D49E, D50E, D91E, N93E); 16H7 VH (M34V, I83T, D109E); HC SEQ ID NO: 43, LC SEQ ID NO: 50”, the t½ in series [1] stood at 15.7 days. Further, the “Thermal stability DSF Tm” value in series [4] is 62 °C. The “Thermal stability DSF Tonset” value in series [4] turned out to be 45 °C. Moreover, the “DSF Tm” value in series [4] (pH 5, 40° C., d 21) came to 62 °C; in series [4] (pH 5, d 0), 62 °C; in series [4] (pH 6, 40° C., d 21), 62 °C; in series [4] (pH 6, d 0), 62 °C; in series [4] (pH 8, 40° C., d 21) it was 66 °C; in series [4] (pH 8, d 0), 66 °C. The “DSF Tonset” value in series [4] (pH 5, 40° C., d 21) was 46 °C; in series [4] (pH 5, d 0) it was 45 °C; in series [4] (pH 6, 40° C., d 21), 46 °C; in series [4] (pH 6, d 0), 45 °C; in series [4] (pH 8, 40° C., d 21), 56 °C; in series [4] (pH 8, d 0) it was 56 °C. Moreover, in series [5], the “Hydrophobic variance HIC Number of peaks” value is 1. In addition, the “HIC Number of peaks” value in series [5] (pH 5, 40° C., d 21) was 1; in series [5] (pH 5, d 0), 1; in series [5] (pH 6, 40° C., d 21), 1; in series [5] (pH 6, d 0) it was 1; in series [5] (pH 8, 40° C., d 21) it was 1; in series [5] (pH 8, d 0), 1.

For the origin of these results see US20250115669A1, “FGFR1/KLB Targeting Agonistic Antigen-Binding Proteins and Conjugates Thereof with GLP-1R Agonistic Peptides” (SANOFI, priority 2020, published 2025).
